# Data published in FireProtDB (doi:10.1002/pro.5560030904).
# Values joined by “and” are separate entries in the source; they are usually repeats but may differ in a detail not shown here. Equal entries are not always repeated.
# B1: Fructose-bisphosphate aldolase A wild type, P00883 (protein)
# chain: MPHSHPALTPEQKKELSDIAHRIVAPGKGILAADESTGSIAKRLQSIGTENTEENRRFYRQLLLTADDRVNPCIGGVILFHETLYQKADDGRPFPQVIKSKGGVVGIKVDKGVVPLAGTNGETTTQGLDGLSERCAQYKKDGADFAKWRCVLKIGEHTPSALAIMENANVLARYASICQQNGIVPIVEPEILPDGDHDLKRCQYVTEKVLAAVYKALSDHHIYLEGTLLKPNMVTPGHACTQKYSHEEIAMATVTALRRTVPPAVTGVTFLSGGQSEEEASINLNAINKCPLLKPWALTFSYGRALQASALKAWGGKKENLKAAQEEYVKRALANSLACQGKYTPSGQAGAAASESLFISNHAY
# Conditions: Oryctolagus cuniculus; pH 7.4; Thermal; DSC; sodium phosphate 10 mM; transition: 4; reversible: yes; whole UniProt chain shown
protein,measurement,value
B1,unfolding enthalpy (calorimetric),61 kcal/mol and 34 kcal/mol
